# Data taken from patent US20200262913A1 (ZymoGenetics, published 2020).
# T1: recombinant human IL-31 (as used in the NHK STAT3 phosphorylation assay of Example 5) (human, UniProt Q6EBC2 24-164, limits assumed)
# T1 sequence: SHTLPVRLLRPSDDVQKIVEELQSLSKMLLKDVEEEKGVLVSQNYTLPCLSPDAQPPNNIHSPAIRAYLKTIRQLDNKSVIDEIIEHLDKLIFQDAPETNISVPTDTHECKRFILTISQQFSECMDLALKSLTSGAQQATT
# T2: recombinant human IL-31 (hIL-31, BHK produced, A1277F, zcytor17lig CEE) (human, UniProt Q6EBC2 24-164)
# T2 construct: also called recombinant hIL-31
# T2 sequence: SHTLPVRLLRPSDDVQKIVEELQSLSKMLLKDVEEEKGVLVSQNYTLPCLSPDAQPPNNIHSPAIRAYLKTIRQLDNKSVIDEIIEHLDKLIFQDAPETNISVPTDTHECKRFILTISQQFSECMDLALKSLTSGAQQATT
# Assays:
# [1] = target: T1, recombinant human IL-31 (as used in the …); experiment: cell-based or functional assay
# [2] = target: recombinant human IL-31 (C108S), produced in E. coli by ZymoGenetics, MW 18 kDa (human), Q6EBC2; experiment: cell-based or functional assay
# [3] = target: T2, recombinant human IL-31 (hIL-31, BHK …); experiment: SPR (Biacore), against parent 292.12.3.1
# Procedure: (§1) The purified monoclonal antibodies were immobilized in individual flow cells on a CM5 type sensor chip. Immobilizations were performed using a standard amine coupling procedure, aiming for an immobilization level of 500 Resonance Units (RU). The antibodies were diluted to 1-5 ug/ml in 10 mM NaAc pH 4.5.
# (§2) HPS-EP pH 7.4 (10 mM HEPES, 150 mM NaCl, 3 mM EDTA and 0.005% Polysorbat P20) was used as running buffer, and diluents for the recombinant hIL-31 (hIL-31, BHK produced, A1277F, zcytor17lig CEE). The hIL-31 was tested in a 3-fold dilution series from 333.3 nM to 1.4 nM. Association (injection) was 4 min., followed by a 20 min. dissociation (wash) period. Flow rate was 50 ul/min. Experiments were performed at 25OC. Regeneration of the surface was accomplished by injection of 30 sec. pulse of 10 mM Glycin-HCl pH 1.8 or 1M formic acid, at a 30 ul/min flow rate. Detection in all flow cells simultaneously. Flow cell #1 contained no immobilized antibody, and was used for subtraction of background and bulk.
# (§3) The kinetic parameters were calculated by global fitting of the data using a 1:1 langmuir binding model. Data was inspected for mass-transport limitations prior to calculation of the kinetic parameters. In some experiments the Rmax was fitted locally, and the RI constant at 0.
# [4] = target: T2, recombinant human IL-31 (hIL-31, BHK …); experiment: SPR (Biacore), mAb amine-coupled to CM5 chip, hIL-31 injected
# Procedure: as §1, §2, §3
Binder,"IC50, IL-31-induced STAT3 phosphorylation in NHK, Exp 6 [1]","IC50, IL-31-induced STAT3 phosphorylation in NHK, Exp 7 [1]","IC50, IL-31-induced STAT3 phosphorylation in NHK, Exp 8 [1]","IC50, IL-31-induced STAT3 phosphorylation in NHK, Exp 9 [1]","Average Fold loss in potency relative to 292.12.3.1, BAF-3(hIL-31R) proliferation assay [2]","Average Potency (IC50), inhibition of hIL-31-induced proliferation of BAF-3(hIL-31R) cells [2]",Relative potency loss (kd) [3],Kd [4],koff [4],kon [4],Relative potency loss (KD) [3]
"humanized 292.12.3.1 construct clone 9 (12VH1-gly + HC(fback)) (antibody, human IgG4, V domains shown, also called 09) VH: QVQLVQSGAEVKKPGASVKVSCKASGYTLTRYWMQWVRQAPGQGLEWMGAIYPGDGDTRYSQKFQGRVTLTADKSISTAYMELSSLRSEDTAVYYCAFPDGYYAAPYGMDYWGQGTLVTVSS VL: DIQMTQSPSSLSASVGDRVTITCRASGNIHNYLAWYQQKPGKVPKLLIYNAKTLADGVPSRFSGSGSGTDFTLTISSLQPEDVATYYCQHFWSTPWTFGQGTKVEIKR",3.25 nM,7.37 nM,6.59 nM,7.1 nM,15.1 fold,28.5 nM,~1.5 x to parent,2.1 nM,9e-05 s⁻¹,43000 M⁻¹ s⁻¹,
"humanized 292.12.3.1 construct clone 18 (12VH1-gly + HC(fback) + LC(G66R, G68E, F71Y)) (antibody, human IgG4, V domains shown) VH: QVQLVQSGAEVKKPGASVKVSCKASGYTLTRYWMQWVRQAPGQGLEWMGAIYPGDGDTRYSQKFQGRVTLTADKSISTAYMELSSLRSEDTAVYYCAFPDGYYAAPYGMDYWGQGTLVTVSS VL: DIQMTQSPSSLSASVGDRVTITCRASGNIHNYLAWYQQKPGKVPKLLIYNAKTLADGVPSRFSGSRSETDYTLTISSLQPEDVATYYCQHFWSTPWTFGQGTKVEIKR",2.6 nM,2.68 nM,,,5.9 fold,8.1 nM,,1.13 nM,6.2e-05 s⁻¹,55000 M⁻¹ s⁻¹,~0.5 x to parent
"humanized 292.12.3.1 construct clone 29 (12VH1-gly + HC(F29L, T73K, R94F) + LC(F71Y)) (antibody, human IgG4, V domains shown) VH: QVQLVQSGAEVKKPGASVKVSCKASGYTLTRYWMQWVRQAPGQGLEWMGAIYPGDGDTRYSQKFQGRVTMTRDKSISTVYMELSSLRSEDTAVYYCAFPDGYYAAPYGMDYWGQGTLVTVSS VL: DIQMTQSPSSLSASVGDRVTITCRASGNIHNYLAWYQQKPGKVPKLLIYNAKTLADGVPSRFSGSGSGTDYTLTISSLQPEDVATYYCQHFWSTPWTFGQGTKVEIKR",,,4.49 nM,5.37 nM,8.3 fold,12.9 nM,~1.5 x to parent,0.99 nM,8.98e-05 s⁻¹,90000 M⁻¹ s⁻¹,~0.5 x to parent
"humanized 292.12.3.1 construct clone 17 (12VH1-gly + HC(fback) + LC(D70Q, F71Y, T72S)) (antibody, human IgG4, V domains shown) VH: QVQLVQSGAEVKKPGASVKVSCKASGYTLTRYWMQWVRQAPGQGLEWMGAIYPGDGDTRYSQKFQGRVTLTADKSISTAYMELSSLRSEDTAVYYCAFPDGYYAAPYGMDYWGQGTLVTVSS VL: DIQMTQSPSSLSASVGDRVTITCRASGNIHNYLAWYQQKPGKVPKLLIYNAKTLADGVPSRFSGSGSGTQYSLTISSLQPEDVATYYCQHFWSTPWTFGQGTKVEIKR",6.65 nM,5.29 nM,,,5.2 fold,5.9 nM,,0.9 nM,6.5e-05 s⁻¹,70000 M⁻¹ s⁻¹,~0.4 x to parent
"humanized 292.12.3.1 construct clone 16 (12VH1-gly + HC(fback) + LC(G66R, G68E, D70Q, T72S)) (antibody, human IgG4, V domains shown) VH: QVQLVQSGAEVKKPGASVKVSCKASGYTLTRYWMQWVRQAPGQGLEWMGAIYPGDGDTRYSQKFQGRVTLTADKSISTAYMELSSLRSEDTAVYYCAFPDGYYAAPYGMDYWGQGTLVTVSS VL: DIQMTQSPSSLSASVGDRVTITCRASGNIHNYLAWYQQKPGKVPKLLIYNAKTLADGVPSRFSGSRSETQFSLTISSLQPEDVATYYCQHFWSTPWTFGQGTKVEIKR",3.84 nM,6.22 nM,,,9.8 fold,10.6 nM,,1.2 nM,7.5e-05 s⁻¹,61000 M⁻¹ s⁻¹,~0.5 x to parent
"humanized 292.12.3.1 construct clone 28 (12VH1-gly + HC(F29L, R71A, R94F) + LC(F71Y)) (antibody, human IgG4, V domains shown) VH: QVQLVQSGAEVKKPGASVKVSCKASGYTLTRYWMQWVRQAPGQGLEWMGAIYPGDGDTRYSQKFQGRVTMTADTSISTVYMELSSLRSEDTAVYYCAFPDGYYAAPYGMDYWGQGTLVTVSS VL: DIQMTQSPSSLSASVGDRVTITCRASGNIHNYLAWYQQKPGKVPKLLIYNAKTLADGVPSRFSGSGSGTDYTLTISSLQPEDVATYYCQHFWSTPWTFGQGTKVEIKR",,,10.5 nM,5.95 nM,17.1 fold,26.4 nM,,0.46 nM,5.6e-05 s⁻¹,120000 M⁻¹ s⁻¹,~0.25 x to parent
"humanized 292.12.3.1 construct clone 25 (12VH1-gly + HC(F29L, R94F) + LC(F71Y)) (antibody, human IgG4, V domains shown) VH: QVQLVQSGAEVKKPGASVKVSCKASGYTLTRYWMQWVRQAPGQGLEWMGAIYPGDGDTRYSQKFQGRVTMTRDTSISTVYMELSSLRSEDTAVYYCAFPDGYYAAPYGMDYWGQGTLVTVSS VL: DIQMTQSPSSLSASVGDRVTITCRASGNIHNYLAWYQQKPGKVPKLLIYNAKTLADGVPSRFSGSGSGTDYTLTISSLQPEDVATYYCQHFWSTPWTFGQGTKVEIKR",,,5.85 nM,7.28 nM,16.5 fold,26.3 nM,,0.85 nM,7.2e-05 s⁻¹,85000 M⁻¹ s⁻¹,~0.5 x to parent
"humanized 292.12.3.1 construct clone 27 (12VH1-gly + HC(F29L, M69L, R94F) + LC(F71Y)) (antibody, human IgG4, V domains shown) VH: QVQLVQSGAEVKKPGASVKVSCKASGYTLTRYWMQWVRQAPGQGLEWMGAIYPGDGDTRYSQKFQGRVTLTRDTSISTVYMELSSLRSEDTAVYYCAFPDGYYAAPYGMDYWGQGTLVTVSS VL: DIQMTQSPSSLSASVGDRVTITCRASGNIHNYLAWYQQKPGKVPKLLIYNAKTLADGVPSRFSGSGSGTDYTLTISSLQPEDVATYYCQHFWSTPWTFGQGTKVEIKR",,,3.42 nM,9.59 nM,18.7 fold,29.1 nM,~1.3 x to parent,0.8 nM,7.9e-05 s⁻¹,98000 M⁻¹ s⁻¹,~0.5 x to parent
"humanized 292.12.3.1 construct clone 13 (12VH1-gly + HC(F29L, M69L, R71A, T73K, V78A) + LC(fback)) (antibody, human IgG4, V domains shown) VH: QVQLVQSGAEVKKPGASVKVSCKASGYTLTRYWMQWVRQAPGQGLEWMGAIYPGDGDTRYSQKFQGRVTLTADKSISTAYMELSSLRSEDTAVYYCARPDGYYAAPYGMDYWGQGTLVTVSS VL: DIQMTQSPSSLSASVGDRVTITCRASGNIHNYLAWYQQKPGKVPKLLIYNAKTLADGVPSRFSGSRSETQYSLTISSLQPEDVATYYCQHFWSTPWTFGQGTKVEIKR",46.5 nM,211 nM,,,99.1 fold,109 nM,~50 x to parent,24 nM,0.003 s⁻¹,120000 M⁻¹ s⁻¹,~10 x to parent
